Substrate in data set [1]: CC(=O)Oc1ccc2c(C)cc(=O)oc2c1
As to the kind of experiment: spectrophotometric hydrolysis assay (A354), Michaelis-Menten fit. It is filed as biochemical, Flavobacterium johnsoniae. Conditions: 50 mM HEPES pH 8.0, 10% DMSO, 30 °C. The text has this: spectrophotometric hydrolysis assay (A354), Michaelis-Menten fit on FjoAcXE

Substrate in data set [2]: CC(=O)Oc1ccc([N+](=O)[O-])cc1
Description: spectrophotometric hydrolysis assay (A410), Michaelis-Menten fit. Type of data set: biochemical, Flavobacterium johnsoniae. As to conditions: 50 mM HEPES pH 8.0, 30 °C. The text has this:
spectrophotometric hydrolysis assay (A410), Michaelis-Menten fit on FjoAcXE

B1: FjoAcXE (Flavobacterium johnsoniae UW101) (protein)
chain: GCTSNKALIKTGDKKEDQNWTGTWATAQMLVEPKNMPPEPGLAQNTLRQIIKVSLGGKQIRLRFSNLFSDQPAVLKSVSVANVTEAPAVDIKTQKILSFKGSPQVTLGADEVVYSDAFDFELQPGQLLAITIHYGEISSNVSGHPGSRTTSYILQGDHINNESFAGAVKTDHWYSIMGVDISSVKNESNVVCLGNSIIDGRGSGTNKQNRWTDILASRLNANKNTAHIGVLNLGIGGNCVVRGGLGPTALNRFDRDVLSQSGTKWLIILEGINDIGGIRKAEDASVTAKEIIEGYKVMIDKAHAKGIKVFGGTILPFEKSFYDAPFKQDARDIVNEWIRTKGNFDAVIDFDKAMASDVGSKTILPDMHDNDFLHPNEKGYQRMGETVDLDLFQ
notes: predicted signal peptide (residues 1-21) removed; N-terminal His6-tag (p15TV-L); codon-optimized synthetic gene, expressed in E. coli BL21(DE3) codon plus
For orientation: Km means the substrate concentration at which the rate is half of its maximum. As a reminder, the kcat is the maximal rate divided by the concentration of active sites. A word on the kcat/Km: it is the second-order rate constant that governs catalysis at low substrate concentration. Consider B1, for which, in data set [1], the Michaelis-Menten constant (Km) stood at 800 ± 100 µM, the kcat amounted to 95.1 ± 4.4 s⁻¹ and the kcat/Km came out at 115000 M⁻¹ s⁻¹. Also, in data set [2], the Michaelis constant (Km) was found to be 900 ± 100 µM, the kcat was found to be 121 ± 3 s⁻¹ and the catalytic efficiency (kcat/Km) turned out to be 128000 M⁻¹ s⁻¹.
